Target: MHC class 1 molecules on the target cells
Experiment: cell-based or functional assay

percent lysis of Volle EBV-LCLs by SKEM NK lines 2, 6 and 7 at a 10:1 E/T ratio after preculture of the targets with W6/32: > 80%
Substance: monoclonal antibody W6/32 (anti-pan class 1 MHC monoclonal antibody; DAKO)
